In this assay the target is GPR75-GFP10-11 modified protein complex (UniProt O95800 1-395; P42212 3-196 = GFP). The assay can be described thus: SPR; steady state affinity. In general terms: Surface plasmon resonance follows binding to a sensor surface in real time, without labels.

B1: CCL5 ligand (ligand)
chain: SPYSSDTTPCCFAYIARPLPRAHIKEYFYTSGKCSNPAVVFVTRKNRQVCANPEKKWVREYINSLEMS
As to B1, the Kd (in general, a measure of binding affinity in units of concentration) amounted to 0.388 nM.

Source of the values: patent US20260209311A1 (published 2026).
